Measured values taken from paper PMC10427625, “Structural basis for negative regulation of the Escherichia coli maltose system” (Nature Communications, 2023).
Changes are numbered by the printed parent chain. Names may count otherwise.

B1: MalT (wild type), N-terminally His-tagged (natural protein, Escherichia coli, UniProt P06993 1-901, looked up)
chain: MLIPSKLSRPVRLDHTVVRERLLAKLSGANNFRLALITSPAGYGKTTLISQWAAGKNDIGWYSLDEGDNQQERFASYLIAAVQQATNGHCAICETMAQKRQYASLTSLFAQLFIELAEWHSPLYLVIDDYHLITNPVIHESMRFFIRHQPENLTLVVLSRNLPQLGIANLRVRDQLLEIGSQQLAFTHQEAKQFFDCRLSSPIEAAESSRICDDVSGWATALQLIALSARQNTHSAHKSARRLAGINASHLSDYLVDEVLDNVDLATRHFLLKSAILRSMNDALITRVTGEENGQMRLEEIERQGLFLQRMDDTGEWFCYHPLFGNFLRQRCQWELAAELPEIHRAAAESWMAQGFPSEAIHHALAAGDALMLRDILLNHAWSLFNHSELSLLEESLKALPWDSLLENPQLVLLQAWLMQSQHRYGEVNTLLARAEHEIKDIREDTMHAEFNALRAQVAINDGNPDEAERLAKLALEELPPGWFYSRIVATSVLGEVLHCKGELTRSLALMQQTEQMARQHDVWHYALWSLIQQSEILFAQGFLQTAWETQEKAFQLINEQHLEQLPMHEFLVRIRAQLLWAWARLDEAEASARSGIEVLSSYQPQQQLQCLAMLIQCSLARGDLDNARSQLNRLENLLGNGKYHSDWISNANKVRVIYWQMTGDKAAAANWLRHTAKPEFANNHFLQGQWRNIARAQILLGEFEPAEIVLEELNENARSLRLMSDLNRNLLLLNQLYWQAGRKSDAQRVLLDALKLANRTGFISHFVIEGEAMAQQLRQLIQLNTLPELEQHRAQRILREINQHHRHKFAHFDENFVERLLNHPEVPELIRTSPLTQREWQVLGLIYSGYSNEQIAGELEVAATTIKTHIRNLYQKLGVAHRQDAVQHAQQLLKMMGYGV
notes: Purified with 0.1 mM ADP or 0.4 mM ATP; the elution at 103 kDa fits the whole protein; In PDB 8BOB only residues 1-423 are well defined; also called WT MalT; MalT WT; source: E. coli BL21 (DE3) ΔmalT220, purified (Ni Sepharose, gel filtration)
B2: MalT-S8A, N-terminally His-tagged (natural protein, Escherichia coli, UniProt P06993 1-901, looked up)
chain: B1 chain with S8A
notes: MalT of Escherichia coli, variant of plasmid pOM206 made by site-directed mutagenesis; source: E. coli BL21 (DE3) ΔmalT220, purified (Ni Sepharose, gel filtration)
B3: MalT-R9S, N-terminally His-tagged (natural protein, Escherichia coli, UniProt P06993 1-901, looked up)
chain: B1 chain with R9S
notes: as for B2
B4: MalT-S5L, N-terminally His-tagged (natural protein, Escherichia coli, UniProt P06993 1-901, looked up)
chain: B1 chain with S5L
notes: as for B2
B5: MalT-R173A, N-terminally His-tagged (natural protein, Escherichia coli, UniProt P06993 1-901, looked up)
chain: B1 chain with R173A
notes: as for B2
B6: MalY (wild type), GST tag removed (enzyme, Escherichia coli, UniProt P23256 1-390, looked up)
chain: MFDFSKVVDRHGTWCTQWDYVADRFGTADLLPFTISDMDFATAPCIIEALNQRLMHGVFGYSRWKNDEFLAAIAHWFSTQHYTAIDSQTVVYGPSVIYMVSELIRQWSETGEGVVIHTPAYDAFYKAIEGNQRTVMPVALEKQADGWFCDMGKLEAVLAKPECKIMLLCSPQNPTGKVWTCDELEIMADLCERHGVRVISDEIHMDMVWGEQPHIPWSNVARGDWALLTSGSKSFNIPALTGAYGIIENSSSRDAYLSALKGRDGLSSPSVLALTAHIAAYQQGAPWLDALRIYLKDNLTYIADKMNAAFPELNWQIPQSTYLAWLDLRPLNIDDNALQKALIEQEKVAIMPGYTYGEEGRGFVRLNAGCPRSKLEKGVAGLINAIRAVR
notes: MalY, PLP-dependent dimeric enzyme of E. coli; full-length malY amplified from E. coli genomic DNA, cloned in pGEX-6P-1; the printed mass of 2 × 43.5 kDa fits the untagged protein; Each subunit holds the cofactor PLP; also called MalY WT; source: E. coli BL21 (DE3) ΔmalT220, purified (Glutathione Sepharose, gel filtration); not shown: GST, N-terminal, cleaved
B7: MalT-N169A, N-terminally His-tagged (natural protein, Escherichia coli, UniProt P06993 1-901, looked up)
chain: B1 chain with N169A
notes: as for B2
B8: MalT-R143A, N-terminally His-tagged (natural protein, Escherichia coli, UniProt P06993 1-901, looked up)
chain: B1 chain with R143A
notes: as for B2
B9: MalT-E140A, N-terminally His-tagged (natural protein, Escherichia coli, UniProt P06993 1-901, looked up)
chain: B1 chain with E140A
notes: as for B2

Key:
ATP = assay: luciferase assay of protein-bound nucleotide; set-up: unit not given here; settings: parent: est. 0; read off a plot
ADP = assay: luciferase assay of protein-bound nucleotide; set-up: unit not given here; settings: parent: est. 98; read off a plot
[1] = target: the molecule itself; assay: SEC; Superdex 200 Increase 10/300 GL, in the presence of 1 mM maltotriose and 0.1 mM ADP; same molar amounts of MalT and MalY WT or MalY-D182A/E185A/S218A, separately or together; fractions on SDS-PAGE
[2] = target: B6; assay: cryo-EM structure; purified MalT-MalY complex at about 0.5 mg/ml, ADP and PLP bound; 2.94 Å, C2 symmetry; settings: both partners purified
[3] = target: the molecule itself; assay: SEC; Superose 6 Increase 10/300 GL, 4 °C; MalT pre-incubated at 20 °C for 20 min in buffer I; run in buffer E with 1 mM maltotriose and 0.4 mM ATP; self-association of MalT
[4] = target: B1; assay: SEC; Superdex 200 Increase 10/300 GL, 4 °C, in the presence of ADP; MalT (buffer A, 0.1 mM ADP) and MalY (buffer TKCl, 10 μM PLP) each alone, or incubated at a 1:1 molar ratio on ice for 30 min and run in buffer TKCl with 0.1 mM ADP and 10 μM PLP; settings: both partners purified
[5] = target: the molecule itself; assay: as above

Molecule: MalT (wild type), N-terminally His-tagged (from UniProt P06993) R19A
- other: Nucleotide content (ATP): 7.5
- other: Nucleotide content (ADP): 28

Molecule: MalT (wild type), N-terminally His-tagged (from UniProt P06993) K6A
- other: Nucleotide content (ATP): 58
- other: Nucleotide content (ADP): 13

Molecule: B1
- binding result [1]: binds
- stoichiometry N [2]: 1 MalT per MalY (printed as 2:2)

Molecule: B2
- binding result [3]: binds

Molecule: B3
- binding result [3]: binds

Molecule: B4
- binding result [3]: binds

Molecule: B5
- binding result [3]: binds

Molecule: B6
- binding result [4]: binds
- stoichiometry N [5]: 2

Molecule: B7
- binding result [3]: binds

Molecule: B8
- binding result [3]: binds

Molecule: B9
- binding result [3]: binds
